Experimental data as given in publication PMC2629542 (The Journal of biological chemistry, 2006).

Target: Dr hemagglutinin (DraE) adhesin, Dr fimbriae (E. coli)
Assay: SPR

B1: N-domain of CEACAM6 (domain or fragment)
chain: KLTIESTPFNVAEGKEVLLLAHNLPQNRIGYSWYKGERVDGNSLIVGYVIGTQQATPGPAYSGRETIYPNASLLIQNVTQNDTGFYTLQVIKSDLVNEEATGQFHVYPEL
Question: With B1 as the binder, how does the Kd read?
Answer: 30.1 µM
